The text below walks through data of IntAct's records for PubMed 16183855.

First the molecules themselves.
B1: Caspase-8 (Homo sapiens), Q14790 (parent)
chain: MDFSRNLYDIGEQLDSEDLASLKFLSLDYIPQRKQEPIKDALMLFQRLQEKRMLEESNLSFLKELLFRINRLDLLITYLNTRKEEMERELQTPGRAQISAYRVMLYQISEEVSRSELRSFKFLLQEEISKCKLDDDMNLLDIFIEMEKRVILGEGKLDILKRVCAQINKSLLKIINDYEEFSKERSSSLEGSPDEFSNGEELCGVMTISDSPREQDSESQTLDKVYQMKSKPRGYCLIINNHNFAKAREKVPKLHSIRDRNGTHLDAGALTTTFEELHFEIKPHDDCTVEQIYEILKIYQLMDHSNMDCFICCILSHGDKGIIYGTDGQEAPIYELTSQFTGLKCPSLAGKPKVFFIQACQGDNYQKGIPVETDSEEQPYLEMDLSSPQTRYIPDEADFLLGMATVNNCVSYRNPAEGTWYIQSLCQSLRERCPRGDDILTILTEVNYEVSNKDDKKNMGKQMPQPTFTLRKKLVFPSD

In the assay the parent is B1. As to conditions: with bcl2_human BCL2, P10415.
Chain of bcl2_human BCL2, P10415 (P10415 whole entry): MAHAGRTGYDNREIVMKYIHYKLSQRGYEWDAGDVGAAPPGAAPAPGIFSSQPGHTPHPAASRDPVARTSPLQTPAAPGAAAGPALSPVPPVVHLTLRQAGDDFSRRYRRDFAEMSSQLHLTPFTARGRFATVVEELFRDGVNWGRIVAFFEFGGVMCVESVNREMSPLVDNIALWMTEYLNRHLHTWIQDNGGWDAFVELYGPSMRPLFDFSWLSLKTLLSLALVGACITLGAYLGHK
With C360S, the “effect of a mutation on the interaction” value is given as “increasing interaction”.
